One may read the Km as the concentration of substrate that gives half-maximal velocity. By Vmax is commonly meant the top rate of the reaction or transport when substrate is in excess.

Among the data in publication PMC3902948 are Km and Vmax values, retold here.

The chains are these.
B1: Prp43 (Saccharomyces cerevisiae S288C) (protein)
chain: MGSKRRFSSEHPDPVETSIPEQAAEIAEELSKQHPLPSEEPLVHHDAGEFKGLQRHHTSAEEAQKLEDGKINPFTGREFTPKYVDILKIRRELPVHAQRDEFLKLYQNNQIMVFVGETGSGKTTQIPQFVLFDEMPHLENTQVACTQPRRVAAMSVAQRVAEEMDVKLGEEVGYSIRFENKTSNKTILKYMTDGMLLREAMEDHDLSRYSCIILDEAHERTLATDILMGLLKQVVKRRPDLKIIIMSATLDAEKFQRYFNDAPLLAVPGRTYPVELYYTPEFQRDYLDSAIRTVLQIHATEEAGDILLFLTGEDEIEDAVRKISLEGDQLVREEGCGPLSVYPLYGSLPPHQQQRIFEPAPESHNGRPGRKVVISTNIAETSLTIDGIVYVVDPGFSKQKVYNPRIRVESLLVSPISKASAQQRAGRAGRTRPGKCFRLYTEEAFQKELIEQSYPEILRSNLSSTVLELKKLGIDDLVHFDFMDPPAPETMMRALEELNYLACLDDEGNLTPLGRLASQFPLDPMLAVMLIGSFEFQCSQEILTIVAMLSVPNVFIRPTKDKKRADDAKNIFAHPDGDHITLLNVYHAFKSDEAYEYGIHKWCRDHYLNYRSLSAADNIRSQLERLMNRYNLELNTTDYESPKYFDNIRKALASGFFMQVAKKRSGAKGYITVKDNQDVLIHPSTVLGHDAEWVIYNEFVLTSKNYIRTVTSVRPEWLIEIAPAYYDLSNFQKGDVKLSLERIKEKVDRLNELKQGKNKKKSKHSKK
B2: Prp43/Ntr1(51–110) (Saccharomyces cerevisiae S288C) (protein)
chain: MGSKRRFSSEHPDPVETSIPEQAAEIAEELSKQHPLPSEEPLVHHDAGEFKGLQRHHTSAEEAQKLEDGKINPFTGREFTPKYVDILKIRRELPVHAQRDEFLKLYQNNQIMVFVGETGSGKTTQIPQFVLFDEMPHLENTQVACTQPRRVAAMSVAQRVAEEMDVKLGEEVGYSIRFENKTSNKTILKYMTDGMLLREAMEDHDLSRYSCIILDEAHERTLATDILMGLLKQVVKRRPDLKIIIMSATLDAEKFQRYFNDAPLLAVPGRTYPVELYYTPEFQRDYLDSAIRTVLQIHATEEAGDILLFLTGEDEIEDAVRKISLEGDQLVREEGCGPLSVYPLYGSLPPHQQQRIFEPAPESHNGRPGRKVVISTNIAETSLTIDGIVYVVDPGFSKQKVYNPRIRVESLLVSPISKASAQQRAGRAGRTRPGKCFRLYTEEAFQKELIEQSYPEILRSNLSSTVLELKKLGIDDLVHFDFMDPPAPETMMRALEELNYLACLDDEGNLTPLGRLASQFPLDPMLAVMLIGSFEFQCSQEILTIVAMLSVPNVFIRPTKDKKRADDAKNIFAHPDGDHITLLNVYHAFKSDEAYEYGIHKWCRDHYLNYRSLSAADNIRSQLERLMNRYNLELNTTDYESPKYFDNIRKALASGFFMQVAKKRSGAKGYITVKDNQDVLIHPSTVLGHDAEWVIYNEFVLTSKNYIRTVTSVRPEWLIEIAPAYYDLSNFQKGDVKLSLERIKEKVDRLNELKQGKNKKKSKHSKK
B3: Prp43/Ntr1(1–120) (Saccharomyces cerevisiae S288C) (protein)
chain: MGSKRRFSSEHPDPVETSIPEQAAEIAEELSKQHPLPSEEPLVHHDAGEFKGLQRHHTSAEEAQKLEDGKINPFTGREFTPKYVDILKIRRELPVHAQRDEFLKLYQNNQIMVFVGETGSGKTTQIPQFVLFDEMPHLENTQVACTQPRRVAAMSVAQRVAEEMDVKLGEEVGYSIRFENKTSNKTILKYMTDGMLLREAMEDHDLSRYSCIILDEAHERTLATDILMGLLKQVVKRRPDLKIIIMSATLDAEKFQRYFNDAPLLAVPGRTYPVELYYTPEFQRDYLDSAIRTVLQIHATEEAGDILLFLTGEDEIEDAVRKISLEGDQLVREEGCGPLSVYPLYGSLPPHQQQRIFEPAPESHNGRPGRKVVISTNIAETSLTIDGIVYVVDPGFSKQKVYNPRIRVESLLVSPISKASAQQRAGRAGRTRPGKCFRLYTEEAFQKELIEQSYPEILRSNLSSTVLELKKLGIDDLVHFDFMDPPAPETMMRALEELNYLACLDDEGNLTPLGRLASQFPLDPMLAVMLIGSFEFQCSQEILTIVAMLSVPNVFIRPTKDKKRADDAKNIFAHPDGDHITLLNVYHAFKSDEAYEYGIHKWCRDHYLNYRSLSAADNIRSQLERLMNRYNLELNTTDYESPKYFDNIRKALASGFFMQVAKKRSGAKGYITVKDNQDVLIHPSTVLGHDAEWVIYNEFVLTSKNYIRTVTSVRPEWLIEIAPAYYDLSNFQKGDVKLSLERIKEKVDRLNELKQGKNKKKSKHSKK

Substrate in the data set: Nc1ncnc2c1ncn2[C@@H]1O[C@H](COP(=O)(O)OP(=O)(O)OP(=O)(O)O)[C@@H](O)[C@H]1O
Put plainly: purified protein. The note with it: no RNA, 100 mM NaCl, 10 mM Tris pH 7.5, 2 mM MgCl2.
With B1, the Km is 11.07 ± 2.07 µM and the Vmax was determined as 2.43 µM/min.
As to B2, the Km is 13.42 ± 1.93 µM and the Vmax worked out at 9.54 µM/min.
On to B3, for which the Km is listed as 16.37 ± 1.81 µM and the maximum rate (Vmax) is 11.2 µM/min.
